Data: paper PMC4605297

Target: T1, SsOGT C29A C29A (Sulfolobus solfataricus) (UniProt Q97VW7)
T1 sequence: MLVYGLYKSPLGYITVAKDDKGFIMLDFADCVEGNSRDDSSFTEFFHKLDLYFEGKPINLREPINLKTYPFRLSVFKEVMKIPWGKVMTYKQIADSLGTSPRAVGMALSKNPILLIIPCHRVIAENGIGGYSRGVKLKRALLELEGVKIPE
Assay: competition
Details: O6-methylguanine at position 26 of strand 1; EMSA: 0-25 uM protein, 0.2 uM probe, 37 C 10 min, 10 ul, buffer as ref. 17, 8% native PAGE in 1X TBE pH 8.3; competition: BG-VG assay, 50 C under ref. …

Q: Which Ki does the source give for “GGCAGTAGGCCTAGCATGACAATCTGCATTGGTGATCACGG / CGCTCATCCACAATGCAGATTGTCATGCTAGGCCTACTGCC [ds-Fwdm26]” here?
A: 1030 nM
